pKd: −log10 of the molar value.
Target: Man9-V3 glycopeptide (HIV-1 (clade B JRFL mini-V3))
Test: BLI, biotinylated peptide on streptavidin sensor, bivalent avidity model

DH270.1 (antibody)
pKd: 6.48

From patent US20200113997A1
